Residue numbers refer to the chain shown, from its start.
B1: anti-PDGF BB HCAb P36E10 (antibody, IgG1, V domains shown)
VH: QVQLLESGGGLVQPGGSLRLSCAASGFTFSSYAMSWVRQAPGKGLEWVSAISGSGGSTYYADSVKGRFTISRDNSKNTLYLQMNSLRAEDTAVYYCASNSGFFTLSGFIRYKFWGQGTLVTVSS
notes: Heavy chain only antibody, no light chain; VH fused to IgG1 hinge and CH2/CH3; not shown: human IgG1 hinge region and CH2/CH3 regions (no CH1)
B2: anti-PDGF BB HCAb P36A4 (antibody, IgG1, V domains shown)
VH: B1 VH with A23P, S98R, S100N, F102I, T104M, L105F, S106R, F108V, F113S
notes: as for B1
B3: anti-PDGF BB HCAb P36F3 (antibody, IgG1, V domains shown)
VH: QVQLVESGGGLVQPGGSLRLSCAASGFTFSSYWMHWVRQAPGKGLVWVSRINSDGSSTSYADSVKGRFTISRDNAKNTLYLQMNSLRAEDTAVYYCAKDKGITMVRGVIHFDYWGQGTLVTVSS
notes: as for B1
B4: anti-PDGF BB HCAb P36E8 (antibody, IgG1, V domains shown)
VH: B1 VH with G101E, F102L, T104K, L105V, S106N, F108V, K112D
notes: as for B1
B5: anti-PDGF BB HCAb P36C12 (antibody, IgG1, V domains shown)
VH: B1 VH with S98R, G101E, F102I, T104M, L105V, S106K, F108V, R110Q, K112N, F113S
notes: Heavy chain only antibody, no light chain; VH fused to IgG1 hinge and CH2/CH3; It is printed in places as P36012, which looks like a misprint of P36C12; also called P36012; not shown: human IgG1 hinge region and CH2/CH3 regions (no CH1)
B6: anti-PDGF BB HCAb P36A3 (antibody, V domains shown)
VH: B1 VH with G101V, F103S, S106K, I109L, R110Q
notes: Heavy chain only antibody, no light chain; VH fused to IgG1 hinge and CH2/CH3 and made in CHO cells as fully human recombinant HCAb; It was captured by anti-human IgG Fc in the SPR assay; not shown: human IgG1 hinge region and CH2/CH3 regions (no CH1)
B7: P36F3 (bispecific antibody, part only; not given: linker, domain order, Fc, V domains shown, not shown: another chain or arm of the molecule; a dimerising Fc or GST; small tags and cut ends)
VH 1: B3 VH
VH 2: QVQLVESGGGLVQPGGSLRLSCAASGFTFSSYWMHWVRQAPGKGLVWVSRINSDGSSTSYADSVKGRFTISRDNAKNTLYLQMNSLRAEDTAVYYCAREGYSSGGQFDYWGQGTLVTVSS

These binders were tested against T1, human PDGF-BB (R&D system, 220-BB) (human, UniProt P01127 82-190, biotinylated in the blocking ELISA of Example 4 (sites not given); unlabelled in the SPR assay) (assay: SPR (Biacore T200, 25 C), HCAb captured by anti-human IgG Fc, PDGF-BB as analyte).
T1 construct: Bought protein (R&D Systems), a homodimer of two B subunits; also called human biotinylated PDGF-BB
T1 sequence (P01127 82-190 limits assumed): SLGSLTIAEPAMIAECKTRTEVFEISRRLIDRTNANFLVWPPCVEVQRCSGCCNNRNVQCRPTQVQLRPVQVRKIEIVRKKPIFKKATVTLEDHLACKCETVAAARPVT
Description: (§1) Anti-human IgG Fc antibody was directly immobilized across CM5 biosensor chip (GE Healthcare) using a standard coupling kit (GE Healthcare, BR-1008-39) according to the manufacturer's instructions. Purified anti-PDGF-BB HCAb molecules were diluted in running buffer HBS-EPB (GE Healthcare, BR-1006-69) at 0.5 to 1.0 μg/ml and captured on the coupled across anti-human IgG Fc surface. A 2-fold serial dilution of human PDGF-BB (R&D system, 220-BB) range from 0.625 to 10 nM were injected over anti-PDGF-BB HCAb captured surface at a flow rate of 30 μl/min. Associating rates (Ka) and dissociation rates (Kd) were calculated based on 1:1 Langmuir binding model with BIAcore T200 evaluation software version 2.0 (GE Healthcare). The equilibrium dissociation constant (Kd) was determined by the ratio Koff/Kon.

B1 was tested. Which Kd did it give?
The Kd was 455 pM.

And the koff?
Its koff is 1.92e-05 s⁻¹.

Which Kd does the source give for B2 here?
Its Kd is 1.79 pM.

And the koff?
Its koff is 1.17e-06 s⁻¹.

B3 was tested. Which Kd did it give?
Its Kd is 8.83 pM.

And the koff?
Its koff is 8.73e-06 s⁻¹.

The binders below were run against T1, human PDGF-BB (R&D system, 220-BB) (assay: blocking ELISA: HCAb dilutions with 2 nM biotinylated PDGF-BB, binding to coated PDGFRβ-Fc).
Description: Two micrograms per milliliter per well of PDGFRβ-Fc (R & D Systems) was coated on 96 well microtiter plates overnight at 4° C. In a separate plate, serial dilutions of anti-PDGF BB HCAb were incubated with 2 nM human biotinylated PDGF-BB (R&D Systems) for 1 hr. One hundred microliters of the anti-PDGF BB HCAb-PDGF-BB mix were applied to the PDGFRβ-Fc-coated microtiter plate for 1 hr. The detection antibody (anti-biotin HRP) was then added for 1 hr and the ELISA was developed with a chemiluminescent HRP substrate and read by an ELISA plate reader. Anti-PDGF BB HCAb blocked the binding of PDGF-BB to its receptor PDGFRβ and IC₅₀ of anti-PDGF BB HCAb blocking to PDGFRβ is summarized in Table 4.

B1 was tested. Which IC50 did it give?
Its IC50 is 21.4 nM.

With B4 as the binder, how does the IC50 read?
The IC50 was 5.52 nM.

B5 was tested. Which IC50 did it give?
Its IC50 is 1.07 nM.

How did the IC50 turn out when B2 was run?
Its IC50 is 3.77 nM.

How did the IC50 turn out when B6 was run?
Its IC50 is 7.75 nM.

Which IC50 does the source give for B3 here?
Its IC50 is 1.71 nM.

These binders were tested against T1, human PDGF-BB (R&D system, 220-BB) (assay: SPR (Biacore T200, 25 C), HCAb captured by anti-human IgG Fc, PDGF-BB 0.625-10 nM as analyte, 1:1 model).
Description: as §1

Which kon does the source give for B1 here?
Its kon is 42100 M⁻¹ s⁻¹.

For B4, which kon is on record?
Its kon is 243000 M⁻¹ s⁻¹.

Which kon does the source give for B5 here?
Its kon is 1e+06 M⁻¹ s⁻¹.

Which kon does the source give for B2 here?
Its kon is 654000 M⁻¹ s⁻¹.

With B6 as the binder, how does the kon read?
Its kon is 219000 M⁻¹ s⁻¹.

For B3, which kon is on record?
The kon was 988000 M⁻¹ s⁻¹.

The binders below were run against T1, human PDGF-BB (R&D system, 220-BB) (assay: SPR (Biacore T200, 25 C), HCAb captured by anti-human IgG Fc, PDGF-BB as analyte; * over the limit of detection).
Description: as §1

With B4 as the binder, how does the Kd read?
Its Kd is less than 4.12 pM.

What about the koff of the same binder?
The koff was less than 1e-06 s⁻¹.

How did the Kd turn out when B5 was run?
Its Kd is less than 1 pM.

What about the koff of the same binder?
The koff was less than 1e-06 s⁻¹.

B6 was tested. Which Kd did it give?
Its Kd is less than 4.57 pM.

And the koff?
The koff was less than 1e-06 s⁻¹.

These binders were tested against T1, human PDGF-BB (R&D system, 220-BB) (assay: Real-time sensorgram with response in nm (assay not given). Sample 'P36F3', association with rhPDGF BB at 25 - 500 nM.).

What does the source list for B7?
Kd: 0.0434 nM; kon: 25300 M⁻¹ s⁻¹

These binders were tested against T1, human PDGF-BB (R&D system, 220-BB) (assay: Real-time sensorgram with response in nm (assay not given). Sample 'P36F3', association with rhPDGF BB at 25 - 500 nM. The column is headed kdis(1/s).).

For B7, which koff is on record?
The koff was 1.1e-06 s⁻¹.
